According to the supplement of paper PMC10567573:

B1: HDAC6 (parent)
chain: QEGLLDRCVSFQARFAEKEELMLV
B2: SCNN1D (parent)
chain: FLGHHSFSVRPGTEATISIREDEV

Variants of: B1
Experiment: protein stability index of a GFP-peptide fusion (GPS, HEK-293T) (PSI 1-6); higher = more stable
Settings: c terminus: a fixed tail appended
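Note: lentivirally expressed fusions sorted by FACS into six bins by GFP to DsRed ratio, PSI derived from sequencing read proportions per bin multiplied by bin number.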

Row | Variant | protein stability index
1 | QEGSLDRCVSFQARFAEKEELMLV [L4S] | 1.75
2 | QESLLDRCVSFQARFAEKEELMLV [G3S] | 2.19
3 | QERLLDRCVSFQARFAEKEELMLV [G3R] | 2.01
4 | QEHLLDRCVSFQARFAEKEELMLV [G3H] | 2.12
5 | QECLLDRCVSFQARFAEKEELMLV [G3C] | 2.3
6 | QEWLLDRCVSFQARFAEKEELMLV [G3W] | 1.79
7 | QENLLDRCVSFQARFAEKEELMLV [G3N] | 2.93
8 | QELLLDRCVSFQARFAEKEELMLV [G3L] | 1.64
9 | QEFLLDRCVSFQARFAEKEELMLV [G3F] | 1.06
10 | QEPLLDRCVSFQARFAEKEELMLV [G3P] | 1.78
11 | QEVLLDRCVSFQARFAEKEELMLV [G3V] | 1.4
12 | QEMLLDRCVSFQARFAEKEELMLV [G3M] | 2.04
13 | QEILLDRCVSFQARFAEKEELMLV [G3I] | 1.95
14 | QEQLLDRCVSFQARFAEKEELMLV [G3Q] | 2.01
15 | QETLLDRCVSFQARFAEKEELMLV [G3T] | 1.97
16 | QEDLLDRCVSFQARFAEKEELMLV [G3D] | 2.12
17 | QEKLLDRCVSFQARFAEKEELMLV [G3K] | 2.16
18 | QEYLLDRCVSFQARFAEKEELMLV [G3Y] | 1.31
19 | QEALLDRCVSFQARFAEKEELMLV [G3A] | 1.89
20 | QEELLDRCVSFQARFAEKEELMLV [G3E] | 2.54
21 | QEGLLDRTVSFQARFAEKEELMLV [C8T] | 2.27
22 | QEGLLDRKVSFQARFAEKEELMLV [C8K] | 2.45
23 | QEGLLDRGVSFQARFAEKEELMLV [C8G] | 2.61
24 | QEGLLDRHVSFQARFAEKEELMLV [C8H] | 1.93
25 | QEGLLDRNVSFQARFAEKEELMLV [C8N] | 1.9
26 | QEGLLDRRVSFQARFAEKEELMLV [C8R] | 1.98
27 | QEGLLDRDVSFQARFAEKEELMLV [C8D] | 1.77

Row | Variant | protein stability index
28 | QEGLLDRMVSFQARFAEKEELMLV [C8M] | 1.98
29 | QEGLLDRPVSFQARFAEKEELMLV [C8P] | 1.87
30 | QEGLLDRQVSFQARFAEKEELMLV [C8Q] | 2.12
31 | QEGLLDRFVSFQARFAEKEELMLV [C8F] | 1.61
32 | QEGLLDRIVSFQARFAEKEELMLV [C8I] | 1.67
33 | QEGLLDRYVSFQARFAEKEELMLV [C8Y] | 4.19
34 | QEGLLDRLVSFQARFAEKEELMLV [C8L] | 1.57
35 | QEGLLDRAVSFQARFAEKEELMLV [C8A] | 1.97
36 | QEGLLDRSVSFQARFAEKEELMLV [C8S] | 2.44
37 | QEGLLDRVVSFQARFAEKEELMLV [C8V] | 2.17
38 | QEGLLDREVSFQARFAEKEELMLV [C8E] | 2.04
39 | QEGLLDRWVSFQARFAEKEELMLV [C8W] | 1.62
40 | QEGLLDRCVDFQARFAEKEELMLV [S10D] | 2.19
41 | QEGLLDRCVCFQARFAEKEELMLV [S10C] | 1.77
42 | QEGLLDRCVAFQARFAEKEELMLV [S10A] | 2.5
43 | QEGLLDRCSSFQARFAEKEELMLV [V9S] | 2.84
44 | QEGLLDRCGSFQARFAEKEELMLV [V9G] | 1.9
45 | QEGLLDRCFSFQARFAEKEELMLV [V9F] | 1.63
46 | QEGLLDRCHSFQARFAEKEELMLV [V9H] | 1.94
47 | QEGLLDRCTSFQARFAEKEELMLV [V9T] | 2.07
48 | QEGLLDRCMSFQARFAEKEELMLV [V9M] | 2.57
49 | QEGLLDRCASFQARFAEKEELMLV [V9A] | 1.71
50 | QEGLLDRCESFQARFAEKEELMLV [V9E] | 2.35
51 | QEGLLDRCYSFQARFAEKEELMLV [V9Y] | 2.29
52 | QEGLLDRCDSFQARFAEKEELMLV [V9D] | 2.29
53 | QEGLLDRCQSFQARFAEKEELMLV [V9Q] | 2.7
54 | QEGLLDRCISFQARFAEKEELMLV [V9I] | 2.44

Row | Variant | protein stability index
55 | QEGLLDRCPSFQARFAEKEELMLV [V9P] | 2.36
56 | QEGLLDRCNSFQARFAEKEELMLV [V9N] | 2.58
57 | QEGLLDRCWSFQARFAEKEELMLV [V9W] | 1.79
58 | QEGLLDRCRSFQARFAEKEELMLV [V9R] | 2
59 | QEGLLDRCKSFQARFAEKEELMLV [V9K] | 2.34
60 | QEGLLDRCCSFQARFAEKEELMLV [V9C] | 2.18
61 | QEGLLDRCLSFQARFAEKEELMLV [V9L] | 1.74
62 | QEGLLPRCVSFQARFAEKEELMLV [D6P] | 1.38
63 | QEGLLARCVSFQARFAEKEELMLV [D6A] | 2.45
64 | QEGLLWRCVSFQARFAEKEELMLV [D6W] | 2.38
65 | QEGLLQRCVSFQARFAEKEELMLV [D6Q] | 1.87
66 | QEGLLLRCVSFQARFAEKEELMLV [D6L] | 1.9
67 | QEGLLRRCVSFQARFAEKEELMLV [D6R] | 2
68 | QEGLLKRCVSFQARFAEKEELMLV [D6K] | 2.69
69 | QEGLLIRCVSFQARFAEKEELMLV [D6I] | 1.69
70 | QEGLLVRCVSFQARFAEKEELMLV [D6V] | 2.06
71 | QEGLLYRCVSFQARFAEKEELMLV [D6Y] | 1.95
72 | QEGLLGRCVSFQARFAEKEELMLV [D6G] | 1.74
73 | QEGLLHRCVSFQARFAEKEELMLV [D6H] | 2.09
74 | QEGLLFRCVSFQARFAEKEELMLV [D6F] | 1.54
75 | QEGLLTRCVSFQARFAEKEELMLV [D6T] | 1.64
76 | QEGLLSRCVSFQARFAEKEELMLV [D6S] | 2.13
77 | QEGLLERCVSFQARFAEKEELMLV [D6E] | 1.84
78 | QEGLLNRCVSFQARFAEKEELMLV [D6N] | 2.37
79 | QEGLLCRCVSFQARFAEKEELMLV [D6C] | 1.78
80 | QEGLLMRCVSFQARFAEKEELMLV [D6M] | 1.87

Variants of: B2
Experiment: as above
Settings: c terminus: a fixed tail appended

Row | Variant | protein stability index
81 | FLGHHSFSVRPGTEATISIREDEN [V24N] | 1.99
82 | FLGHHSFSVRPGTEATISIREDET [V24T] | 1.66
83 | FLGHHSFSVRPGTEATISIREDER [V24R] | 1.49
84 | FLGHHSFSVRPGTEATISIREDEK [V24K] | 1.93
85 | FLGHHSFSVRPGTEATISIREDEW [V24W] | 1.44
86 | FLGHHSFSVRPGTEATISIREDEL [V24L] | 1.66
87 | FLGHHSFSVRPGTEATISIREDEQ [V24Q] | 2.25
88 | FLGHHSFSVRPGTEATISIREDEP [V24P] | 1.76
89 | FLGHHSFSVRPGTEATISIREDEG [V24G] | 1.9
90 | FLGHHSFSVRPGTEATISIREDEI [V24I] | 1.8
91 | FLGHHSFSVRPGTEATISIREDEY [V24Y] | 1.48
92 | FLGHHSFSVRPGTEATISIREDEM [V24M] | 2.75
93 | FLGHHSFSVRPGTEATISIREDES [V24S] | 1.62
94 | FLGHHSFSVRPGTEATISIREDEH [V24H] | 1.76
